Measured values as given in the FLAb antibody collection (doi:10.7554/elife.23156).

B1: scFv; the commonest letter at each place (parent)
chain 1: EVKLDETGGGLVQPGRPMKLSCVASGFTFSDYWMNWVRQSPEKGLEWVAQIRNKPYNYETYYSDSVKGRFTISRDDSKSSVYLQMNNLRVEDMGIYYCTGSYYGMDYWGQGTSVTVS
chain 2: DVVMTQTPLSLPVSLGDQASISCRSSQSLVHSNGNTYLRWYLQKPGQSPKVLIYKVSNRFSGVPDRFSGSGSGTDFTLKISRVEAEDLGVYFCSQSTHVPWTFGGGTKLEIK

Tests used:
fluorescein = variants of: B1; experiment: Kd (Tite-Seq); conditions: with fluorescein; format: scFv 4-4-20, heavy + light
[1] = variants of: B1; experiment: yeast surface expression (ratio to wild type); higher = more expressed; conditions: format: scFv 4-4-20, heavy + light

| Kd (fluorescein) | Variant | yeast surface expression [1] |
| --- | --- | --- |
| 0.00708 µM | chain 1 Y102T M105K | 0.849 |
| ≥ 10 µM | chain 1 Y103K G104R W108V | 0.32 |
| ≥ 10 µM | chain 1 Y103W G104F M105E | 0.578 |
| ≥ 10 µM | chain 1 Y103N G104T Y107K | 0.619 |
| ≥ 10 µM | chain 1 Y103E Y107V | 1.07 |
| ≥ 10 µM | chain 1 Y103L M105G | 1.02 |
| ≥ 10 µM | chain 1 Y103L M105C | 1 |
| ≥ 10 µM | chain 1 Y103L M105I | 0.741 |
| ≥ 10 µM | chain 1 Y103P D106T W108C | 0.258 |
| ≥ 10 µM | chain 1 Y103H Y107I | 1.25 |
| ≥ 10 µM | chain 1 Y103H Y107Q | 0.941 |
| ≥ 10 µM | chain 1 Y103S D106H | 0.542 |
| ≥ 10 µM | chain 1 Y103S D106K | 0.311 |
| ≥ 10 µM | chain 1 Y103D G109D | 0.542 |
| ≥ 10 µM | chain 1 Y103D G109R | 0.269 |
| ≥ 10 µM | chain 1 Y103D G109H | 0.441 |
| ≥ 10 µM | chain 1 Y103F G104R W108Y | 0.139 |
| ≥ 10 µM | chain 1 Y103S G104N | 1.04 |
| ≥ 10 µM | chain 1 Y103S G104D | 1.12 |
| ≥ 10 µM | chain 1 Y102T G104W | 0.638 |
| ≥ 10 µM | chain 1 Y103F M105T | 1.01 |
| ≥ 10 µM | chain 1 Y103L G104Y | 0.604 |
| 0.00251 µM | chain 1 Y102S Y107R | 0.667 |
| 0.00128 µM | chain 1 Y102S Y107W | 0.747 |

| Kd (fluorescein) | Variant | yeast surface expression [1] |
| --- | --- | --- |
| ≥ 10 µM | chain 1 Y103V G104W | 0.419 |
| 0.55 µM | chain 1 Y103L Y107S | 0.878 |
| ≥ 10 µM | chain 1 Y103L Y107D | 0.471 |
| ≥ 10 µM | chain 1 Y103M M105H D106Y | 0.63 |
| ≥ 10 µM | chain 1 Y103K D106M | 0.716 |
| 2.88 µM | chain 1 Y102W Y103W | 0.645 |
| ≥ 10 µM | chain 1 Y103H G109M | 0.304 |
| ≥ 10 µM | chain 1 Y103A W108D | 0.576 |
| ≥ 10 µM | chain 1 Y103A W108E | 0.603 |
| ≥ 10 µM | chain 1 Y103N G104P | 0.478 |
| ≥ 10 µM | chain 1 Y103N G104Q | 0.766 |
| ≥ 10 µM | chain 1 Y103N G104F | 0.839 |
| ≥ 10 µM | chain 1 Y103N G104T | 0.851 |
| ≥ 10 µM | chain 1 Y103W G109S | 0.653 |
| ≥ 10 µM | chain 1 Y103W G109A | 0.557 |
| ≥ 10 µM | chain 1 Y103I G104P G109M | 0.279 |
| ≥ 10 µM | chain 1 Y103D D106R | 0.454 |
| ≥ 10 µM | chain 1 Y103T M105H | 0.849 |
| ≥ 10 µM | chain 1 Y103M G104M M105L | 0.562 |
| ≥ 10 µM | chain 1 Y103A G104Y G109T | 0.211 |
| 0.00894 µM | chain 1 Y102T | 0.932 |
| 0.0107 µM | chain 1 Y102V | 0.936 |
| 0.00361 µM | chain 1 Y102W | 0.638 |
| ≥ 10 µM | chain 1 Y103M D106F Y107G | 0.265 |

| Kd (fluorescein) | Variant | yeast surface expression [1] |
| --- | --- | --- |
| ≥ 10 µM | chain 1 Y103S W108R | 0.441 |
| ≥ 10 µM | chain 1 Y103W G104P | 1 |
| 0.00158 µM | chain 1 Y102W Y107W | 0.797 |
| ≥ 10 µM | chain 1 Y102W Y107G | 0.493 |
| 0.00158 µM | chain 1 Y102W Y107F | 0.61 |
| 0.0944 µM | chain 1 Y102W Y107S | 0.557 |
| 1.63 µM | chain 1 Y102V M105Q | 0.736 |
| 0.522 µM | chain 1 Y102V M105N | 1.01 |
| ≥ 10 µM | chain 1 Y103L D106P | 0.559 |
| ≥ 10 µM | chain 1 Y103L D106I | 0.764 |
| ≥ 10 µM | chain 1 Y103H D106H | 0.611 |
| 0.712 µM | chain 1 Y103Q W108A | 0.644 |
| ≥ 10 µM | chain 1 Y103Q W108N | 0.415 |
| 0.0146 µM | chain 1 Y103F Y107V | 0.817 |
| 0.495 µM | chain 1 Y103C W108N | 0.227 |
| ≥ 10 µM | chain 1 Y103N D106N W108T | 0.736 |
| ≥ 10 µM | chain 1 Y107A G109L | 0.218 |
| ≥ 10 µM | chain 1 Y107A G109Q | 0.292 |
| ≥ 10 µM | chain 1 Y107A G109M | 0.209 |
| ≥ 10 µM | chain 1 Y103H M105F Y107L | 0.92 |
| 3.74 µM | chain 1 Y103I W108C | 0.359 |
| ≥ 10 µM | chain 1 Y103I W108S | 0.397 |
| 0.0221 µM | chain 1 Y103G Y107W | 1.21 |
| ≥ 10 µM | chain 1 Y103T D106R | 0.311 |

| Kd (fluorescein) | Variant | yeast surface expression [1] |
| --- | --- | --- |
| ≥ 10 µM | chain 1 Y103T D106Y | 0.37 |
| ≥ 10 µM | chain 1 Y103T D106S | 0.883 |
| 0.0146 µM | chain 1 Y103I M105W | 0.528 |
| ≥ 10 µM | chain 1 Y103I M105E | 0.733 |
| 0.021 µM | chain 1 Y102S Y103S | 1.1 |
| 0.0125 µM | chain 1 Y102S Y103C | 0.707 |
| ≥ 10 µM | chain 1 Y103C G109Y | 0.494 |
| ≥ 10 µM | chain 1 Y103C G109D | 0.356 |
| ≥ 10 µM | chain 1 Y103C G109A | 0.397 |
| ≥ 10 µM | chain 1 Y103E D106P | 0.413 |
| 0.00226 µM | chain 1 Y102V Y107F | 0.877 |
| ≥ 10 µM | chain 1 Y102V Y107D | 0.452 |
| 1.14 µM | chain 1 Y103M M105N | 1.52 |
| ≥ 10 µM | chain 1 Y103S G109T | 0.469 |
| ≥ 10 µM | chain 1 Y103W M105T | 0.915 |
| ≥ 10 µM | chain 1 Y103V M105P | 0.474 |
| ≥ 10 µM | chain 1 Y103P G109S | 0.828 |
| ≥ 10 µM | chain 1 Y103T W108S | 0.244 |
| ≥ 10 µM | chain 1 Y103T W108P | 0.468 |
| 4.37 µM | chain 1 Y103Q M105Q | 1.14 |
| ≥ 10 µM | chain 1 Y103Q M105G | 0.906 |
| ≥ 10 µM | chain 1 Y103Q M105T | 0.874 |
| ≥ 10 µM | chain 1 Y103D G104Y | 0.898 |
| ≥ 10 µM | chain 1 Y103T G104Q | 0.9 |

| Kd (fluorescein) | Variant | yeast surface expression [1] |
| --- | --- | --- |
| ≥ 10 µM | chain 1 Y103T G104W | 0.534 |
| 6.27 µM | chain 1 Y102V Y103G Y107F | 1.12 |
| ≥ 10 µM | chain 1 Y103N G109P | 0.519 |
| ≥ 10 µM | chain 1 Y103I Y107F W108D | 0.437 |
| ≥ 10 µM | chain 1 Y103W M105L G109W | 0.199 |
| ≥ 10 µM | chain 1 Y103D Y107C | 0.646 |
| 1.26 µM | chain 1 Y103D Y107N | 1.12 |
| ≥ 10 µM | chain 1 Y103D Y107R | 0.955 |
| ≥ 10 µM | chain 1 Y103D M105N | 1.19 |
| ≥ 10 µM | chain 1 Y103D M105Y | 1.03 |
| ≥ 10 µM | chain 1 Y103E G109I | 0.277 |
| ≥ 10 µM | chain 1 Y103P D106M | 0.742 |
| ≥ 10 µM | chain 1 Y103P D106H | 0.565 |
| ≥ 10 µM | chain 1 Y103C G104C | 0.223 |
| 2.01 µM | chain 1 Y103C G104H | 0.403 |
| ≥ 10 µM | chain 1 Y107E G109E | 0.288 |
| ≥ 10 µM | chain 1 Y103H G104F | 0.477 |
| ≥ 10 µM | chain 1 Y103G M105N | 1.46 |
| ≥ 10 µM | chain 1 Y103G M105S | 0.983 |
| ≥ 10 µM | chain 1 Y103C D106L | 0.589 |
